Measured values from article doi:10.1101/2023.05.11.540447v1.

Experiments:
[1] = substrate: CC(=O)N[C@H]1[C@@H](OP(=O)(O)OP(=O)(O)OC[C@H]2O[C@@H](n3ccc(=O)[nH]c3=O)[C@H](O)[C@@H]2O)O[C@H](CO)[C@@H](O)[C@@H]1O; assay: purified protein; conditions: UDP-GlcA fixed at 2.5 mM, Mg2+, 37 °C, GDN detergent
[2] = substrate: O=C(O)[C@H]1O[C@H](OP(=O)(O)OP(=O)(O)OC[C@H]2O[C@@H](n3ccc(=O)[nH]c3=O)[C@H](O)[C@@H]2O)[C@H](O)[C@@H](O)[C@@H]1O; assay: purified protein; conditions: UDP-GlcNAc fixed at 2.5 mM, Mg2+, 37 °C, GDN detergent

B1: Xl-HAS-1 (Xenopus laevis) (protein)
chain: MKEKAAETMEIPEGIPKDLEPKHPTLWRIIYYSFGVVLLATITAAYVAEFQVLKHEAILFSLGLYGLAMLLHLMMQSLFAFLEIRRVNKSELPCSFKKTVALTIAGYQENPEYLIKCLESCKYVKYPKDKLKIILVIDGNTEDDAYMMEMFKDVFHGEDVGTYVWKGNYHTVKKPEETNKGSCPEVSKPLNEDEGINMVEELVRNKRCVCIMQQWGGKREVMYTAFQAIGTSVDYVQVCDSDTKLDELATVEMVKVLESNDMYGAVGGDVRILNPYDSFISFMSSLRYWMAFNVERACQSYFDCVSCISGPLGMYRNNILQVFLEAWYRQKFLGTYCTLGDDRHLTNRVLSMGYRTKYTHKSRAFSETPSLYLRWLNQQTRWTKSYFREWLYNAQWWHKHHIWMTYESVVSFIFPFFITATVIRLIYAGTIWNVVWLLLCIQIMSLFKSIYACWLRGNFIMLLMSLYSMLYMTGLLPSKYFALLTLNKTGWGTSGRKKIVGNYMPILPLSIWAAVLCGGVGYSIYMDCQNDWSTPEKQKEMYHLLYGCVGYVMYWVIMAVMYWVWVKRCCRKRSQTVTLVHDIPDMCV
Km [1]: 470 µM | Km [2]: 370 µM
